Numbering of substitutions follows the chain as printed. In names and notes the source's numbering stands. Each block holds one binder with its values, some of them ahead of it.
Legend:
ROR1 Frizzled domain = molecular target: T1, ROR1 Frizzled domain (human, UniProt Q01973 165-299); test: BLI, IgG1 on biosensor, soluble ROR1 domain
T1 construct: also called FZ domain; Acro Cat. No. RO1-H5222
From the text: (§1) To measure binding affinity in ROR binder discovery campaigns, the VL and VH domains identified in the phage screen described above were formatted into a bivalent monospecific native human full-length IgG1 architecture and immobilized to a biosensor on an Octet (Pall ForteBio) biolayer interferometer. Soluble ROR antigens, including the extracellular domains of ROR1 (Acro Cat. No. RO1-H522γ) and ROR2 (Acro Cat. No. R02-H52E5), as well as the individual ROR1 Frizzled (Acro Cat. No. RO1-H5222), Ig-like (Acro Cat. No. RO1-H5221), and Kringle (Acro Cat. No. RO1-H5223) domains, were then added to the system and binding measured.
(§2) ROR binding candidates, formatted in the bivalent monospecific native human full-length IgG1 architecture, were further characterized for binding to ROR1 and/or ROR2. […] ROR binding candidates were also characterized for their binding to specific ROR1 domains.

[1] = molecular target: T2, extracellular domain of human ROR1 (human, UniProt Q01973 30-406); test: BLI, IgG1 on biosensor, soluble ROR ectodomain
T2 construct: bought protein; biotinylated in the bivalent assay format; also called Acro Cat. No. RO1-H522y
T2 sequence (Q01973 30-406 limits assumed): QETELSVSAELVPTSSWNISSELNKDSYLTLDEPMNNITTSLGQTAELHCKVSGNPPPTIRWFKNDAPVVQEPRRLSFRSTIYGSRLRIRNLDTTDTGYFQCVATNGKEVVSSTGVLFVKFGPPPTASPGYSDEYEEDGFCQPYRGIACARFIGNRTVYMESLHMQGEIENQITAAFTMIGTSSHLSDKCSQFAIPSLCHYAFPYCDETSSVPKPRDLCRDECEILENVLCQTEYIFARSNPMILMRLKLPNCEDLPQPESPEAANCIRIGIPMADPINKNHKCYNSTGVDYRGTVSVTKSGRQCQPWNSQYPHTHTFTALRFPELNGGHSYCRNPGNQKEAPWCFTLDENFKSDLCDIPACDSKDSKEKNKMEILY
From the text: as §1, §2

[2] = molecular target: T3, extracellular domain of human ROR2 (human, UniProt Q01974 34-403); test: BLI, IgG1 on biosensor, soluble ROR ectodomain
T3 construct: bought protein; biotinylated in the bivalent assay format; also called Acro Cat. No. RO2-H52E5
T3 sequence (Q01974 34-403 limits assumed): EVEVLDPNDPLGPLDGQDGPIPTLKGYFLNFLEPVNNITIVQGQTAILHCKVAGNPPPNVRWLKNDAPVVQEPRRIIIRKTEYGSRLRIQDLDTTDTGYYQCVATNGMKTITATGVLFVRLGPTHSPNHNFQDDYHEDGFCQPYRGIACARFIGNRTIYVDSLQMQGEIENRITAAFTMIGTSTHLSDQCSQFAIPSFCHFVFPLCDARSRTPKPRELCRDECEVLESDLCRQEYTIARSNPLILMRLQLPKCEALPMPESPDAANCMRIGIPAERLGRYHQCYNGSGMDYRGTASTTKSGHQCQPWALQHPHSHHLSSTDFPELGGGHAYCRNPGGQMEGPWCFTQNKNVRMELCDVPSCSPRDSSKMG
From the text: as §1, §2

ROR1 Ig-like domain = molecular target: T4, ROR1 Ig-like domain (human, UniProt Q01973 42-147); test: BLI, IgG1 on biosensor, soluble ROR1 domain
T4 construct: also called Acro Cat. No. RO1-H5221
T4 sequence (Q01973 42-147): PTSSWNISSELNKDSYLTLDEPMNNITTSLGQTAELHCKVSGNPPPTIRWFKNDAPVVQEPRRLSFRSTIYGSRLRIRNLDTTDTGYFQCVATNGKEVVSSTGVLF
From the text: as §1, §2

T1 sequence (Q01973 165-299): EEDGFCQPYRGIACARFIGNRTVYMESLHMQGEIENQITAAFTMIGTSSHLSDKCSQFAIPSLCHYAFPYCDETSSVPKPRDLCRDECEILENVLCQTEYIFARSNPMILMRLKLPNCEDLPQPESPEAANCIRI

B1: I2C-23 IgG1 (antibody, V domains shown)
VH: EVQLVESGGGLVQPGGSLRLSCAASGFTFSSYEIHWVRQAPGKGLEWVASIYPFSGDTYYADSVKGRFTISADTSKNTAYLQMNSLRAEDTAVYYCARPGRAIYYAVMDYWGQGTLVTVSS
VL: DIQMTQSPSSLSASVGDRVTITCRASQSVSSAVAWYQQKPGKAPKLLIYSASSLYSGVPSRFSGSRSGTDFTLTISSLQPEDFATYYCQQAGSHLFTFGQGTKVEIK
notes: human IgG1
binding result (ROR1 Frizzled domain): binds | binding result [1]: binds | binding result [2]: binds

B2: I2C-4 IgG1 (antibody, V domains shown)
VH: EVQLVESGGGLVQPGGSLRLSCAASGFTFWSYFIHWVRQAPGKGLEWVAYIHPSSSYTDYADSVKGRFTISADTSKNTAYLQMNSLRAEDTAVYYCARTSRDGAMDYWGQGTLVTVSS
VL: B1 VL with A91W, G92Y, H94P, L95P, F96E
notes: human IgG1
binding result (ROR1 Ig-like domain): binds | binding result [1]: binds | binding result [2]: binds

B3: I2A-32 IgG1 (antibody, V domains shown)
VH: EVQLVESGGGLVQPGGSLRLSCAASGFTFQSYVIHWVRQAPGKGLEWVAAIYPYSSSTIYADSVKGRFTISADTSKNTAYLQMNSLRAEDTAVYYCARSWSVYLGMDYWGQGTLVTVSS
VL: B1 VL with A91S, G92Y, S93D, H94S, L95P, F96R
notes: human IgG1
binding result (ROR1 Frizzled domain): binds | binding result [1]: binds | binding result [2]: no binding

B4: I2A-19 IgG1 (antibody, V domains shown)
VH: EVQLVESGGGLVQPGGSLRLSCAASGFTFSSYFIHWVRQAPGKGLEWVAWIYPSGSYTYYADSVKGRFTISADTSKNTAYLQMNSLRAEDTAVYYCAREMDRVGYSGMDYWGQGTLVTVSS
VL: B1 VL with A91Y, G92R, S93T, H94P, F96G
notes: human IgG1
binding result (ROR1 Frizzled domain): binds | binding result [1]: binds | binding result [2]: binds

Next, values leading:

binding result (ROR1 Frizzled domain): binds | binding result [1]: binds | binding result [2]: binds
B5: I2C-6 IgG1 (antibody, V domains shown)
VH: EVQLVESGGGLVQPGGSLRLSCAASGFTFSWYFIHWVRQAPGKGLEWVARIYSTGGYTEYADSVKGRFTISADTSKNTAYLQMNSLRAEDTAVYYCARSAFFGALDYWGQGTLVTVSS
VL: B1 VL with A91Y, G92P, H94G, L95P, F96E
notes: human IgG1

binding result (ROR1 Ig-like domain): binds | binding result [1]: binds | binding result [2]: binds
B6: I2C-8 IgG1 (antibody, V domains shown)
VH: EVQLVESGGGLVQPGGSLRLSCAASGFTFSGYFIHWVRQAPGKGLEWVAAIFPYRGGTSYADSVKGRFTISADTSKNTAYLQMNSLRAEDTAVYYCARGGVSPGGFDYWGQGTLVTVSS
VL: B1 VL with A91Y, G92Y, S93L, H94Y, L95P, F96G
notes: human IgG1; same CDRs as I2A-16; also called 12C-8

binding result (ROR1 Ig-like domain): binds | binding result [1]: binds | binding result [2]: binds
B7: I2C-9 IgG1 (antibody, V domains shown)
VH: EVQLVESGGGLVQPGGSLRLSCAASGFTFTDYDIHWVRQAPGKGLEWVARIWPHGSYTFYADSVKGRFTISADTSKNTAYLQMNSLRAEDTAVYYCARSLTHSYGFDYWGQGTLVTVSS
VL: B1 VL with A91Y, G92Y, S93T, H94W, F96I
notes: human IgG1

binding result (ROR1 Frizzled domain): binds | binding result [1]: binds | binding result [2]: binds
B8: I2A-11 IgG1 (antibody, V domains shown)
VH: EVQLVESGGGLVQPGGSLRLSCAASGFTFSSYVIHWVRQAPGKGLEWVAAIYPYTSSTQYADSVKGRFTISADTSKNTAYLQMNSLRAEDTAVYYCARSYGTGGFDYWGQGTLVTVSS
VL: B1 VL with A91W, G92Y, H94Y, L95P, F96L
notes: human IgG1

binding result (ROR1 Frizzled domain): binds | binding result [1]: binds | binding result [2]: binds
B9: I2A-34 IgG1 (antibody, V domains shown)
VH: EVQLVESGGGLVQPGGSLRLSCAASGFTFSWYVIHWVRQAPGKGLEWVAYIAPYTGSTYYADSVKGRFTISADTSKNTAYLQMNSLRAEDTAVYYCARAFFGIRLGLDYWGQGTLVTVSS
VL: B1 VL with G92I, H94S, L95P, F96Y
notes: human IgG1
